Experimental data taken from patent US20220251236A1 (Boehringer Ingelheim, published 2022).
Positions count from the first letter of the chain named.

B1: DLL3#3/CD3#3 (bispecific antibody, human IgG1, kappa, lambda, L234A L235A)
chain 1: DIQMTQSPSAMSASVGDRVTITCRASQGISNYLVWFQQKPGKAPKRLIYAVSSLYSGVPSRFSGSGSGTEFTLTISSLQPEDFATYYCLQHDSYPYTFGQGTKLEIKRTVAAPSVFIFPPSDEQLKSGTASVVCLLNNFYPREAKVQWKVDNALQSGNSQESVTEQDSKDSTYSLSSTLTLSKADYEKHKVYACEVTHQGLSSPVTKSFNRGECGGGGSEGKSSGSGSESKSTEGKSSGSGSESKSTGGGGSQVQLVQSGAEVKKPGASVKVSCKASGYTFTSYYVHWVRQAPGQGLEWMVIINPGGGTTSYAQKFLGRVTMTRDTSTNTVYMELKSLRSEDTAVYYCARGEAVTGNYFYYGMDVWGQGTTVTVSSASTKGPSVFPLAPSSKSTSGGTAALGCLVKDYFPEPVTVSWNSGALTSGVHTFPAVLQSSGLYSLSSVVTVPSSSLGTQTYICNVNHKPSNTKVDKRVEPKSCDKTHTCPPCPAPEAAGGPSVFLFPPKPKDTLMISRTPEVTCVVVDVSHEDPEVKFNWYVDGVEVHNAKTKPREEQYNSTYRVVSVLTVLHQDWLNGKEYKCKVSNKALPAPIEKTISKAKGQPREPQVYTLPPSREEMTKNQVSLWCLVKGFYPSDIAVEWESNGQPENNYKTTPPVLDSDGSFFLYSKLTVDKSRWQQGNVFSCSVMHEALHNHYTQKSLSLSPG
chain 2: EAVVTQEPSLTVSPGGTVTLTCRSSTGAVTTSNYANWVQEKPGQLPRGLIGGTNKRAPWVPARFSGSLLGGKAALTLSGAQPEDEAEYFCALWYSNLWVFGGGTKLTVLGQPKAAPSVTLFPPSSEELQANKATLVCLISDFYPGAVKVAWKADGSPVNTGVETTTPSKQSNNKYAASSYLSLTPEQWKSHRSYSCQVTHEGSTVEKTVAPAECSGGGGSEGKSSGSGSESKSTEGKSSGSGSESKSTGGGGSEVQLVESGGGLVQPGGSLKLSCAASGFTFNTYAMNWVRQAPGKGLEWVARIRSKYANYATYYADSVKDRFTISRDDSKNTAYLQMNNLKTEDTAVYYCVRHGNFGNSYVSWFAYWGQGTLVTVSAASTKGPSVFPLAPSSKSTSGGTAALGCLVKDYFPEPVTVSWNSGALTSGVHTFPAVLQSSGLYSLSSVVTVPSSSLGTQTYICNVNHKPSNTKVDKRVEPKSCDKTHTCPPCPAPEAAGGPSVFLFPPKPKDTLMISRTPEVTCVVVDVSHEDPEVKFNWYVDGVEVHNAKTKPREEQYNSTYRVVSVLTVLHQDWLNGKEYKCKVSNKALPAPIEKTISKAKGQPREPQVYTLPPSREEMTKNQVSLSCAVKGFYPSDIAVEWESNGQPENNYKTTPPVLDSDGSFFLVSKLTVDKSRWQQGNVFSCSVMHEALHNRFTQKSLSLSPG
notes: Heterodimer of one DLL3 chain and one CD3 chain (scFab-Fc, knob-in-hole)
B2: DLL3#8/CD3#1 (bispecific antibody, human IgG1, kappa, lambda, L234A L235A)
chain 1: not shown
chain 2: B1 chain 2 with A309N
notes: as for B1

How the values were obtained:
Human DLL3-His [1] = molecular target: T1, Human DLL3-His (human, UniProt Q9NYJ7 27-492); assay: SPR (ProteOn XPR36), bispecific captured on protein A/G, hu DLL3 as analyte, Example 4B
T1 construct: also called huDLL3-His; hu DLL3
T1 sequence: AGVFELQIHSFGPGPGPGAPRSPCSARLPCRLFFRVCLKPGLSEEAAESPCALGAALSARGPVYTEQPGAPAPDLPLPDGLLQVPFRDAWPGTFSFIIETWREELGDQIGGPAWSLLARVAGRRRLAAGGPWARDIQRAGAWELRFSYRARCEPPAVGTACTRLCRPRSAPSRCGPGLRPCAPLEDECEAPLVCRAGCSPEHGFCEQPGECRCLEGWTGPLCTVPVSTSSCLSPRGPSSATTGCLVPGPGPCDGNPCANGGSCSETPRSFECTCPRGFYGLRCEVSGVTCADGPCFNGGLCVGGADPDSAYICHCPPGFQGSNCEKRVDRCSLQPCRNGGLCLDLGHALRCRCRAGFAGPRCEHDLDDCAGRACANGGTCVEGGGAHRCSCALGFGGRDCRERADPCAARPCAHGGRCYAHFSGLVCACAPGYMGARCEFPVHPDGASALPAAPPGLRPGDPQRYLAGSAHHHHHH
Summary of the method: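 Bispecific constructs captured on protein A/G for 200 s at 30 μl/min, baseline stabilized with PBS-T-EDTA. Human DLL3 analyte injected 300 s at 30 μl/min; dissociation followed for 1800 s.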

Human CD3 E+G HuFc-6xHis [2] = molecular target: T2, Human CD3 E+G HuFc-6xHis (human); assay: SPR (ProteOn XPR36), CD3εγ-Fc amine-coupled, bispecific as analyte, equilibrium fit, Example 4A
T2 construct: also called hu CD3εγ-Fc
T2 sequence (chain, as listed by the source limits assumed): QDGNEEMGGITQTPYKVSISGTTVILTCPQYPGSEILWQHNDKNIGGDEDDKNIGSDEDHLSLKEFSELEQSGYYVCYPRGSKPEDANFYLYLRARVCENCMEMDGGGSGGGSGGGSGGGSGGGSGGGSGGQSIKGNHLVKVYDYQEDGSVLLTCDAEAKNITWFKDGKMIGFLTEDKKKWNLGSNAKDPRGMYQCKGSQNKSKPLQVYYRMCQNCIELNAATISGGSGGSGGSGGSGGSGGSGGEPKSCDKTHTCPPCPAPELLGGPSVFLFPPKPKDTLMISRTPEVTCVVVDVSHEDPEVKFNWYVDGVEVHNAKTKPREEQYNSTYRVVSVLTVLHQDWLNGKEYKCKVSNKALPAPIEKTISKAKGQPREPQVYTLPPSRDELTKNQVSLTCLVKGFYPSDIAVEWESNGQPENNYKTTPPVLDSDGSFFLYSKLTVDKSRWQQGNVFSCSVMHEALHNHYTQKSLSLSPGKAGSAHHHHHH
Experimental: (§1) The binding affinity of purified DLL3/CD3 bispecific constructs for recombinant human and cyno DLL3-ECD and Fc-fusion proteins of human and cyno CD3 εγ subunits was determined by Surface Plasmon Resonance (SPR), using a ProteOn XPR36 instrument (Bio-Rad). The running buffer and all dilutions (except where stated) were done in PBS-T-EDTA. The GLM sensor chip (Bio-Rad) was normalized and pre-conditioned as per the manufacturer's recommendations. The sensor chip was activated with equal mixture of EDC/s-NHS in the horizontal direction for 300 sec at a flow rate of 30 ul/min and immobilized with protein A/G (20 ug/ml in 10 mM acetate pH 4.5) in the horizontal direction for 300 sec at a flowrate of 30 ul/min resulting in ˜5000 RU of protein A/G on the surface. The sensor chip was deactivated with 1M ethanolamine HCl in the horizontal direction for 300 sec at a flowrate of 30 μl/min.
For binding kinetic determination to CD3, hu CD3εγ-Fc and cy CD3εγ-Fc (dissolved in pH 4.5 acetate) was immobilized directly onto the sensor surface through amine coupling for 140 sec at a flowrate of 30 μl/min vertically. The baseline was stabilized by injecting PBS-T-EDTA for 60 sec at a flowrate of 40 μl/min horizontally. The analyte (the bispecific molecule) was injected horizontally over the captured CD3εγ-Fc construct for 600 sec at a flowrate of 40 μl/min and a dissociation for 600 sec.
(§2) The inter spot (interactions with sensor surface) and blank (PBS-T-EDTA) were subtracted from the raw data.

Cyno DLL3-His [3] = molecular target: T3, Cyno DLL3-His (cynomolgus monkey, UniProt Q9NYJ7 27-492 (human entry)); assay: SPR (ProteOn XPR36), bispecific captured on protein A/G, DLL3 as analyte, Example 4A
T3 construct: also called cy DLL3; recombinant cyno DLL3-ECD
T3 chain: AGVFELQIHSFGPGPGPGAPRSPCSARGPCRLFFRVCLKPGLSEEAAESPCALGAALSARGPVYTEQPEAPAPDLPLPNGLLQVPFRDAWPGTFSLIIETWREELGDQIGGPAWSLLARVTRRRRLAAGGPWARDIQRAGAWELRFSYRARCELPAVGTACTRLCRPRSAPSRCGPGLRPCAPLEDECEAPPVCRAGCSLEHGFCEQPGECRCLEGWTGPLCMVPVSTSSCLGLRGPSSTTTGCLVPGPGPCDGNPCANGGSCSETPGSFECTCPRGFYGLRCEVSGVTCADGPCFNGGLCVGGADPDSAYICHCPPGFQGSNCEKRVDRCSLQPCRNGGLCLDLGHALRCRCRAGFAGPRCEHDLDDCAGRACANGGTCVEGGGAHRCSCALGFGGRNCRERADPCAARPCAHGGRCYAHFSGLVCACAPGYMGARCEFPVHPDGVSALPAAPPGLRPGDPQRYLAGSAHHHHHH
Experimental: as §1
(§3) For binding kinetic determination to DLL3, bispecific molecules were captured individually on the protein A/G surface vertically for 250 sec at a flowrate of 25 μl/min. The baseline was stabilized by injecting PBS-T-EDTA for 60 sec at a flowrate of 40 μl/min horizontally. The analyte (hu DLL3 or cy DLL3) was injected horizontally over the captured antibody for 600 sec at a flowrate of 40 μl/min and a dissociation for 2700 sec.
as §2

Human DLL3-His [4] = molecular target: T1, Human DLL3-His; assay: as above
Experimental: as §1, §3, §2

[5] = molecular target: T4, trypsin inhibitor from glycine max soybean (Glycine max (soybean)); assay: SPR (Biacore T200), trypsin inhibitor on CM5 chip, sample at 1 µM
T4 construct: also called Tryp
T4 sequence (P01070 25-205): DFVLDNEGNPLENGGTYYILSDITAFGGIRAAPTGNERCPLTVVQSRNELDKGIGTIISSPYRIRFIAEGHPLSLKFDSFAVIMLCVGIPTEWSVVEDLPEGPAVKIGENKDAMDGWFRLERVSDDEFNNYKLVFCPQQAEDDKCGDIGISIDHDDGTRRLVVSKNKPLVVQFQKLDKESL
Excerpt: To prepare the surface for the non-specific binding experiment, chicken egg white lysozyme and trypsin inhibitor from glycine max soybean were coupled manually to a series S CM5 chip with the surface density of 3000-5000 RU using the amine coupling kit according to the manufacture instructions.

Cyno DLL3-His [6] = molecular target: T3, Cyno DLL3-His; assay: SPR; ratio of the KD values for human and cyno DLL3
Experimental: as §1, §3, §2

Human CD3 E+G HuFc-6xHis [7] = molecular target: T2, Human CD3 E+G HuFc-6xHis; assay: SPR (ProteOn XPR36), HuCD3E_HuCD3G-Fc amine-coupled, bispecific as analyte, Example 4B
Summary of the method: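 SPR kinetics with the bispecific constructs flowed as analyte over a directly amine-coupled (pH 4.5 acetate) human CD3εγ-Fc surface. Association runs 600 s and dissociation 1800 s, at 30 μl/min in PBS-T-EDTA.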

EGF5+6 = molecular target: T5, EGF5+6; assay: flow cytometry on HEK293 cells expressing the DLL3 subdomain construct, PE anti-human secondary, control: secondary antibody only
T5 construct: also called Hu DLL3 EGF5+6 on HEK293 cells
T5 membrane-anchored DLL3 subdomain construct: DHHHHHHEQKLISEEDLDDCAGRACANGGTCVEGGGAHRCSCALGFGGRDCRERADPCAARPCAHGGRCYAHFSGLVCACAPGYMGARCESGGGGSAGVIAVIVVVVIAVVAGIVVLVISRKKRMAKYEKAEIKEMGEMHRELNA
Summary of the method: (§4)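 Binders tested on HEK293 cells displaying the DLL3 subdomain construct; bound molecules detected by flow cytometry using PE-conjugated anti-human secondary antibody. Negative control: cells with secondary antibody only.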

EGF2+3 = molecular target: T6, EGF2+3; assay: as above
T6 construct: also called Hu DLL3 EGF2+3 on HEK293 cells
T6 membrane-anchored DLL3 subdomain construct: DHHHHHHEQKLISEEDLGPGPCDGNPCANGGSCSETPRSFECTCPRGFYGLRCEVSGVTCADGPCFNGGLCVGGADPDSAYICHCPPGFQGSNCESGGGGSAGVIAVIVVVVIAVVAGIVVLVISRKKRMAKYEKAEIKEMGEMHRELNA
Summary of the method: as §4

EGF1+2 = molecular target: T7, EGF1+2; assay: as above
T7 construct: also called Hu DLL3 EGF1+2 on HEK293 cells
T7 membrane-anchored DLL3 subdomain construct: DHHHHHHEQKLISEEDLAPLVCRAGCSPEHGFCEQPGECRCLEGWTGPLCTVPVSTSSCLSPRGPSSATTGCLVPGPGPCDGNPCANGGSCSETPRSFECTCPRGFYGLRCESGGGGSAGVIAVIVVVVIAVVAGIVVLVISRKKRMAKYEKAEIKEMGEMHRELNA
Summary of the method: as §4

[8] = molecular target: T8, EGF6+MEMBRANE PROXIMAL PEPTIDE; assay: as above
T8 construct: also called Hu DLL3 EGF6+membrane proximal peptide on HEK293 cells
T8 membrane-anchored DLL3 subdomain construct: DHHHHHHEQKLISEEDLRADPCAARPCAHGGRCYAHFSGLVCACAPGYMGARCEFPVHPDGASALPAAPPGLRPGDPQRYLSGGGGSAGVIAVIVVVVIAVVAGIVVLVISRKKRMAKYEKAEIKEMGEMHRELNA
Summary of the method: as §4

EGF4+5 = molecular target: T9, EGF4+5; assay: flow cytometry on HEK293 cells expressing the DLL3 subdomain construct, 1.6 nM binder, PE anti-human secondary, control: secondary antibody only
T9 construct: also called Hu DLL3 EGF4+5 on HEK293 cells
T9 membrane-anchored DLL3 subdomain construct: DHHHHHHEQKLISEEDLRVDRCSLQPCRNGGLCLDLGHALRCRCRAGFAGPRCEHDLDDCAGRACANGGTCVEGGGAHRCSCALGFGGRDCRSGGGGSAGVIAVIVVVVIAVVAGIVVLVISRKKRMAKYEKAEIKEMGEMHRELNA
Experimental: DLL3/CD3 binding proteins were produced by transient transfection of CHO-E cells with the pTT5 vectors carrying the chain-encoding genes, as described in Example 2. […] Bound molecules were detected with PE-conjugated anti-human secondary antibody (Sigma-Aldrich, #P8047). As negative control, cells were incubated with secondary antibody only.
The samples were measured by flow-cytometry. […] The sequences of the epitope domains are listed in Example 5, Table 3.

Row | Binder | Kd (Human DLL3-His [1]) [nM] | Kd (Human CD3 E+G HuFc-6xHis [2]) [nM] | Kd (Cyno DLL3-His [3]) [nM] | Kd (Human DLL3-His [4]) [nM] | Non-specific binding (RU) [5] [RU] | Affinity gap KD hu/cyno DLL3 (Cyno DLL3-His [6]) | Kd (Human CD3 E+G HuFc-6xHis [7]) [nM] | binding result (EGF5+6) | binding result (EGF2+3) | binding result (EGF1+2) | binding result [8] | binding result (EGF4+5)
1 | B1 | 0.116 | 68 | < 0.01 | < 0.01 | 28 | 1 | 4 |  |  |  |  | 
2 | B2 |  |  |  |  | 18 |  | 2 | no binding (tested: 1.6 nM) | no binding (tested: 1.6 nM) | no binding (tested: 1.6 nM) | no binding (tested: 1.6 nM) | binds
